Results taken from PMC6624373.

B1: lamin A (human, mature form, without tags, wild type) [human] / itself (parent)
chain: METPSQRRATRSGAQASSTPLSPTRITRLQEKEDLQELNDRLAVYIDRVRSLETENAGLRLRITESEEVVSREVSGIKAAYEAELGDARKTLDSVAKERARLQLELSKVREEFKELKARNTKKEGDLIAAQARLKDLEALLNSKEAALSTALSEKRTLEGELHDLRGQVAKLEAALGEAKKQLQDEMLRRVDAENRLQTMKEELDFQKNIYSEELRETKRRHETRLVEIDNGKQREFESRLADALQELRAQHEDQVEQYKKELEKTYSAKLDNARQSAERNSNLVGAAHEELQQSRIRIDSLSAQLSQLQKQLAAKEAKLRDLEDSLARERDTSRRLLAEKEREMAEMRARMQQQLDEYQELLDIKLALDMEIHAYRKLLEGEEERLRLSPSPTSQRSRGRASSHSSQTQGGGSVTKKRKLESTESRSSFSQHARTSGRVAVEEVDEEGKFVRLRNKSNEDQSMGNWQIKRQNGDDPLLTYRFPPKFTLKAGQVVTIWAAGAGATHSPPTDLVWKAQNTWGCGNSLRTALINSTGEEVAMRKLVRSVTVVEDDEDEDGDDLLHHHHGSHCSSSGDPAEYNLRSRTVLCGTCGQPADKASASGSGAQVGGPISSGSSASSVTVTRSYRSVGGSGGGSFGDNLVTRSY

Variants of: B1
Assay: rotary metal shadowing EM
Conditions: with itself; n = 1000 per mutant; parent: 22; read off a plot

screen value [%] | Variant
13 | chain 1 R7E R8E

Same assay, conditions: with itself; n = 1000 per mutant; parent: 35; read off a plot

screen value [%] | Variant
30 | chain 1 R7E R8E

Same assay, conditions: with itself; n = 1000 per mutant; parent: 43; read off a plot

screen value [%] | Variant
57 | chain 1 R7E R8E

Variants of: B1
Assay: in vitro assembly/solubility assay (centrifugation, SDS-PAGE band quantification)
Conditions: with itself; oligomerisation buffer; n = 3 independent replicas; parent: 1; read off a plot

ratio to parent | Variant
3.7 | chain 1 R7E R8E
